In patent publication US20260242478A1 (published 2026):
Where no end group is shown, it is not given here.

B1: Peptide-107 (peptide)
peptide: ACAGHAWQYINKCL
B2: Peptide-115 (peptide)
peptide: YCAGHAWQYINACL
B3: Peptide-112 (peptide)
peptide: YCAGHAWQAINKCL
B4: Peptide-116 (peptide)
peptide: YCAGHAWQYINKCA
B5: Peptide-108 (peptide)
peptide: YCAAHAWQYINKCL
B6: Peptide-113 (peptide)
peptide: YCAGHAWQYANKCL
B7: Peptide-109 (peptide)
peptide: YCAGAAWQYINKCL
B8: Peptide-114 (peptide)
peptide: YCAGHAWQYIAKCL
B9: Peptide-111 (peptide)
peptide: YCAGHAWAYINKCL
B10: Peptide-110 (peptide)
peptide: YCAGHAAQYINKCL
B11: Peptide-99 (peptide)
peptide: ACAAGASYAWPYCL
B12: Peptide-100 (peptide)
peptide: SCAAAASYAWPYCL
B13: Peptide-101 (peptide)
peptide: SCAAGAAYAWPYCL
B14: Peptide-103 (peptide)
peptide: SCAAGASYAAPYCL
B15: Peptide-104 (peptide)
peptide: SCAAGASYAWAYCL
B16: Peptide-102 (peptide)
peptide: SCAAGASAAWPYCL
B17: Phage-277 (peptide)
peptide: MDWCPRSHWSECFS
modifications: cysteine pairing not given here; also: displayed on phage as fusion to pIII, fusion limits and linker not given here
notes: Clonal phage of the Peptide-9 library, tested as crude phage supernatant; not shown: pIII of the bacteriophage
B18: Phage-274 (peptide)
peptide: WVSCLRHHWLECFH
modifications: cysteine pairing not given here; also: displayed on phage as fusion to pIII, fusion limits and linker not given here
notes: as for B17
B19: Phage-279 (peptide)
peptide: MDWCPRYLWAECFN
modifications: cysteine pairing not given here; also: displayed on phage as fusion to pIII, fusion limits and linker not given here
notes: as for B17
B20: Phage-270 (peptide)
peptide: MDWCPRDFWAFCFF
modifications: cysteine pairing not given here; also: displayed on phage as fusion to pIII, fusion limits and linker not given here
notes: as for B17
B21: Phage-269 (peptide)
peptide: DSFCTWSAWQECGR
modifications: cysteine pairing not given here; also: phage-displayed pIII fusion, pIII and linker not given here
notes: as for B17
B22: Phage-266 (peptide)
peptide: VTSCPTTMWNRCFS
modifications: cysteine pairing not given here; also: displayed on bacteriophage as fusion to pIII, fusion limits and linker not given here
notes: as for B17
B23: Phage-272 (peptide)
peptide: MVWCMSVGWAVCLN
modifications: cysteine pairing not given here; also: displayed on phage as fusion to pIII, fusion limits and linker not given here
notes: as for B17
B24: Phage-276 (peptide)
peptide: IDWCPKIHWDLCYF
modifications: cysteine pairing not given here; also: displayed on phage as fusion to pIII, fusion limits and linker not given here
notes: as for B17
B25: Phage-275 (peptide)
peptide: MDWCPRDHWVDCYS
modifications: cysteine pairing not given here; also: displayed on phage as fusion to pIII, fusion limits and linker not given here
notes: as for B17
B26: Phage-267 (peptide)
peptide: MTLCLSVDLVHCWY
modifications: cysteine pairing not given here; also: displayed on bacteriophage as fusion to pIII, fusion limits and linker not given here
notes: as for B17
B27: Phage-23 (peptide, not shown: large carriers)
peptide: MDWCPLHMWHECFS
notes: Clonal phage supernatant
B28: Phage-22 (peptide, not shown: large carriers)
peptide: MNWCPKDIWYLCFN
notes: Clonal phage supernatant
B29: Phage-35 (peptide, not shown: large carriers)
peptide: MDWCPRSLWHECFA
modifications: cysteine pairing not given here; also: fused to phage pIII, linker not given here
notes: Clonal phage supernatant
B30: Phage-36 (peptide, not shown: large carriers)
peptide: MDWCPRYLWHVCFA
modifications: cysteine pairing not given here; also: fused to phage pIII, linker not given here
notes: Clonal phage supernatant
B31: Phage-32 (peptide, not shown: large carriers)
peptide: MDWCPRDMWSVCFS
modifications: cysteine pairing not given here; also: fused to phage pIII, linker not given here
notes: Clonal phage supernatant; the listing entry decides
B32: Phage-29 (peptide, not shown: large carriers)
peptide: MDWCPRDLWVHCFA
modifications: cysteine pairing not given here; also: fused to phage pIII, linker not given here
notes: Clonal phage supernatant
B33: Phage-416 clonal phage peptide MDWCPSNMWNECFF (peptide)
peptide: MDWCPSNMWNECFF
notes: tested as crude clonal phage supernatant
B34: Phage-419 clonal phage peptide VDWCPAHMWNECYN (peptide)
peptide: VDWCPAHMWNECYN
notes: as for B33

What follows are binders tested against anti-CD28 Fab (assay: competition ELISA, peptide titrated 0-100 uM against 1 nM anti-CD28 Fab, plate-bound CD28 as competitor).
anti-CD28 Fab, sequence (VH, as listed by the source, chain 1 of 2): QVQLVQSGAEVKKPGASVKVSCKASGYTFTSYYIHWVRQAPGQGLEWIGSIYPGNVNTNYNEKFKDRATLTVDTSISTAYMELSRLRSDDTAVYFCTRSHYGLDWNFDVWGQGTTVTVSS
anti-CD28 Fab, sequence (VL, as listed by the source, chain 2 of 2): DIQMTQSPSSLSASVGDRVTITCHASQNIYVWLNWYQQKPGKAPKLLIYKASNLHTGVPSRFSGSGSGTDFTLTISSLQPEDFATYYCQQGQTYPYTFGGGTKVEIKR

Binder | IC50
B1 | > 100 µM
B2 | > 100 µM
B3 | > 100 µM
B4 | 98.6 µM
B5 | > 100 µM
B6 | 102 µM
B7 | > 100 µM
B8 | 5.49 µM
B9 | 12.3 µM
B10 | 3.16 µM
B11 | 21 µM
B12 | > 100 µM
B13 | 7.42 µM
B14 | > 100 µM
B15 | > 100 µM
B16 | > 100 µM

Each binder was assayed against T1, Anti-CD28 scFv (VH - linker 1 - VL) (biotinylated (site not given)) (assay: phage binding ELISA on anti-CD28 scFv plate; wells pre-incubated with soluble CD28 as competitor;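 also: clonal phage supernatants tested, bound phage read out with an HRP-linked anti-M13 antibody, reference wells received blocking buffer lacking CD28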).
T1 sequence (scFv, as listed by the source): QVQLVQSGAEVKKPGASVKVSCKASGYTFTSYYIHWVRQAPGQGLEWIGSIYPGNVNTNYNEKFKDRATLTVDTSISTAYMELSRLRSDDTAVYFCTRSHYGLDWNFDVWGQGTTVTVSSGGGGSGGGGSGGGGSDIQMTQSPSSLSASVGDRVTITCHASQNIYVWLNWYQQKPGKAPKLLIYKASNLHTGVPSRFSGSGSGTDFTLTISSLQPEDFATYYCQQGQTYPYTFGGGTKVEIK

Binder | CD28 scFv signal in presence of CD28
B17 | 0.087
B18 | 0.858
B19 | 1.14
B20 | 0.655
B21 | 0.101
B22 | 0.546
B23 | 0.284
B24 | 0.082
B25 | 0.092
B26 | 0.093

What follows are binders tested against anti-CD28 scFv (VH - linker 1 - VL) (biotinylated (site not stated)) (assay: same phage ELISA, wells pre-incubated with soluble CD28 (competitor)).
anti-CD28 scFv (VH - linker 1 - VL) (biotinylated (site not stated)), sequence (scFv, as listed by the source): as above

Binder | CD28 scFv signal in presence of CD28
B27 | 0.151
B28 | 0.168
B29 | 0.255
B30 | 0.226
B31 | 0.207
B32 | 0.179

Each binder was assayed against T1, Anti-CD28 scFv (VH - linker 1 - VL) (assay: phage binding ELISA; biotinylated anti-CD28 scFv on neutravidin plate, bound phage detected with anti-M13-HRP).
Procedure: Clonal phage were harvested as crude supernatants and screened via standard enzyme linked immunosorbent assays (ELISAs). […] Prior to the addition of clonal phage, wells were incubated with blocking buffer and CD28 soluble protein or blocking buffer alone. Without washing or aspirating, clonal phage supernatants were then added to the wells and incubated for a short time. Wells were then washed followed by detection of bound phage using a horse radish peroxidase conjugated anti-M13 antibody.

Binder | CD28 scFv signal
B17 | 0.253
B18 | 0.723
B19 | 2.74
B20 | 2.37
B21 | 0.13
B22 | 1.22
B23 | 0.271
B24 | 0.295
B25 | 0.671
B26 | 0.632

These binders were tested against T2, Anti-CD28 scFv (VH - linker 1 - VL) (biotinylated (site not stated)) (assay: phage ELISA; biotinylated anti-CD28 scFv on neutravidin plate, clonal phage supernatant, anti-M13-HRP detection;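 also: before phage addition, wells were pretreated with soluble CD28 protein in blocking buffer, or with blocking buffer only as the comparison, then phage were added without washing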).
T2 construct: Biotinylated and captured on neutravidin-coated plates in the phage panning ELISA
T2 sequence (scFv, as listed by the source): as above

Binder | CD28 scFv signal
B33 | 0.983
B34 | 0.664
